Target: CRF2-4/zcytor11 heterodimeric receptor (on BaF3/CRF2-4/zcytor11 cells) (human) (UniProt Q08334)
Assay: cell-based or functional assay

Sequence of CRF2-4/zcytor11 heterodimeric receptor (on BaF3/CRF2-4/zcytor11 cells) (human) (Q08334 20-325 limits assumed, chain 1 of 2): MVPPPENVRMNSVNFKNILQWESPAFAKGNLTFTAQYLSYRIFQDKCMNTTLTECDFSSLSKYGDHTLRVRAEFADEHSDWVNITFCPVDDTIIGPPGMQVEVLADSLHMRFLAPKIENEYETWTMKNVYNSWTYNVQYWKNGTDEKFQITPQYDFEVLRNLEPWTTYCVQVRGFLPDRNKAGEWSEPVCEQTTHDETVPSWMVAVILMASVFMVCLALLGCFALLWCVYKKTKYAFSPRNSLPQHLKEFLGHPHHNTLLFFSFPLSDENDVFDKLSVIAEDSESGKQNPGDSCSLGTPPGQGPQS
Sequence of CRF2-4/zcytor11 heterodimeric receptor (on BaF3/CRF2-4/zcytor11 cells) (human) (chain, as listed by the source limits assumed, chain 2 of 2): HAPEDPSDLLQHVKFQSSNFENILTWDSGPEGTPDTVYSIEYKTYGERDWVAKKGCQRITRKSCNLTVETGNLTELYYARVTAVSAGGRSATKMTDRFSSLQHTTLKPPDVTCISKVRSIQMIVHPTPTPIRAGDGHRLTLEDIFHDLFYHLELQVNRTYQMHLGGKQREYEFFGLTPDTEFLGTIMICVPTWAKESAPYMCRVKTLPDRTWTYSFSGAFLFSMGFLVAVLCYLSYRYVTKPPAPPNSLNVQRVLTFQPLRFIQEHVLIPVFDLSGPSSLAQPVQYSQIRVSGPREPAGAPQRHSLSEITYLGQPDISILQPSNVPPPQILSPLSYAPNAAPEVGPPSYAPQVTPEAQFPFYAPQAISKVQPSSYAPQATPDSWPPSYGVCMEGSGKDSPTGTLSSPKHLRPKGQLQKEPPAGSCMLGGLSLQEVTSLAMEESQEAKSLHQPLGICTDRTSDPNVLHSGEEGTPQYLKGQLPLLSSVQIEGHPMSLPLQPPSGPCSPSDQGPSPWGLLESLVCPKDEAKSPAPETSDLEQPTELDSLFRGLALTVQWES

purified human IL-TIF-CEE (IL-TIF with C-terminal Glu-Glu tag) (from UniProt Q9GZX6 34-179) (ligand)
proliferation of BaF3/CRF2-4/zcytor11 cells (Alamar Blue), IL-TIF-CEE at 0.06 ng/ml (fold induction): 2 | proliferation of BaF3/CRF2-4/zcytor11 cells (Alamar Blue), IL-TIF-CEE at 50 ng/ml (fold over background): 15
